Test: soluble fraction after stress (log2 fold change); higher = more stays soluble; pooled small domains, quantitative proteomics
Conditions: stress: 75 degC
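Note: 20 min heating vs room temperature control held 20 min.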

Row | Sequence | soluble fraction (log2)
1 | HMDTVEFPVQVNGKVRGKITVAADAGKDAIETAALADEKVLAFLDGATPKKVIVVPGKLVNLVVQPG | 0.62
2 | HMDTVSYMSDAVKAGAVTPSHDEEARARYLLYAGFGAILLFLRYEASEPGDIESAIREFMERYGPVTAELY | 0.347
3 | HMDTYKGFIFEVVDKYFSPTLNQKIGQAKNKQGIVLLQTKPSFTQDPKVLIEELKLIIDRDNLKA | -1.07
4 | HMDVAAQITYAMRTMGVAPIPRNYELFYEAYIGSNPALTKELAALGSKATQEELDELGQQYF | -1.89
5 | HMDVFPDESLKAWLIEMGFKLDQKKMNVFTVLRRMLLQTAPSVKEFRILEIVLQQSRRKLKELNDLKKS | -0.00949
6 | HMDVKQSAAGVAGRIRFELNRTLTGQGHEKFTSASQAIGPRPAAELARRLFNSGSVVGVHVFANIVTVDLL | 0.136
7 | HMDVLKMKVEDLNIGSRTVNSLTAAKIKTVAGLIKKSKESLLELDGMGNKGVEEIILALKKLGLEL | -1.08
8 | HMDVPTEEAILAYNNVPIELAAKFIGWSDITIRYALQEERAPFGMAAQNPKTGTWSYNISPGLLLKYKSGE | -2.23
9 | HMDVPVEVFMERIVTALREGRKTTFSELMEGKPERGKVIGTFLALLQLSKGQQIQIHQEQRTGEISIEGGA | -0.328
10 | HMDVQTVTVIENVNVRKSASENGQKLGLAYTGEKLELLMKQADGWTRVKYNGETAYVKSDYV | 0.372
11 | HMDVTSLDMLRFLMDQHGLRQQDLSELGSQGVVSEILAGKRELNLRHIGALARRFKVPPEVFLPA | -0.778
12 | HMDVYKRQKLRNFIESLFEDAPKNKQTIELKEEMLQNLIDKYNDLVDSGKSSEAAYNIATAS | 0.131
13 | HMDWNPVRDITAHQVLAILQATHIRAPTVAAEAKRTLSSIFQFAVATLRADIDPVWPVRNALPKNKT | -0.262
14 | HMDYARYGLSEKEAELIELIAQGMNNKEISAEIYLSEGTVRNYISELLEKLELRDRTQLAVYYYTHR | -2.72
15 | HMDYDDLVPLDARGRLRLDGQDIILAFGRHRGRSIEEVHNHDKSYFDWLVSPAGGLEDEVIATLRERF | -0.613
16 | HMDYENGTVKWFNTKKGYGFITRENGEDLFVHFRNIKGRGRRSLNDGEPVTFVVIEGDKGLQADQVSA | -0.34
17 | HMDYGSLQRAIENQLEVRNYQKPKKFLTKIIQLMETIMVRHGVMVVGLTGTGKTTVIETLSRSMEQ | -0.591
18 | HMDYIGIQAAKEAALKDADISSEQAVFTMAELDNKNNIFYYQIMFTENGTEYRYDIDALTGVIIEKNHFF | -2.4
19 | HMDYKLDVNFPEMYLEQIPAEKRAALIQILEQDPRPSYQKDPVRIYGMSYAGMEIHFRVDKETLYVTEVER | -1.06
20 | HMDYLSEFITDKVVRADGYSIRKGELSNEFKQWFITNVGTKNPKPKEIHDYMDRKFGKNKNGIWKNVKIKL | -0.492
21 | HMDYQEVEFEKLGKEILTKILLDINKKATKKTLKILIDGFNYDSYRSFYIAIGKAQISSDSILELLQH | -0.994
22 | HMDYSWNFFIGFSVVDKVAGNLGTIEEIDDKTINTLFLVKNDDEDLIIPATEDFVEKIDAKKRILYLNLPE | -2.51
23 | HMDYYASVDQVWRELGLAGPARRALIDDGLFKLSDLRKTSLAAVKELHGMGPNAIRILTTEMKKADLSFR | -2.15
24 | HMDYYDTLGVPRNASQSDIKKAYKKQSMQHHPDRTGGDDTKFKDVNEAYQVLSNSEKKQMYDQFGTA | 0.07
25 | HMDYYNILGVNKAATAQDIKRAYRKLAKEHHPDHGGDATRLQQVNEAYDTLKDPQRREQYDS | 0.215
26 | HMEAADAGTLAQRAAQYFNEKNYAAALDALERRAAMAPETTELRMMRGWSLLHLNRKDEARNAFATLG | -0.101

Row | Sequence | soluble fraction (log2)
27 | HMEAAIRNALSRVENPDETQRARIYRTAHDALIRNLENRGITDPEQVRPQVSRLKDLISVIEREYHG | -0.131
28 | HMEAALTLRVDKAGSLRSLLSDEQYAKTSKIIVSGEINTLDIKTLQEMSGEKGSLQSIDLSQANIVAY | 0.0407
29 | HMEAFELTPREKQVLQLLVQGKAYKIIAADLDITYDTVRAHIKKIYEKLHVGSMTEAVAKAIQHKL | -2.08
30 | HMEAKKVIAVHIIGEINKPGIVELEEGARVIDAIKKAGGTTEKADLAQINLAYILKDGQKIYIPNTEDN | 0.254
31 | HMEALASESVKDKIRKIIDSEDPSRPMSDQRIKEMLKAANIDIARRTVTKYREAMNILSSTKRRQV | -0.432
32 | HMEALDPLTAREQEVLEMILSGKSNREIAAELHITENTVKTHAQSIYSKYDVRGRAKLISLLLKGEA | -0.406
33 | HMEALQKVSINYYDEGAGKQIAEVPLEVGAGDTEIALAVINKYMPAEYNLVSTDYQIRGGYVYVSVTPA | -0.49
34 | HMEAPPHEALSNREFQVLQLLSQGRSVTQIAHQLTLSANTISTYRARIFDKLGLHNPADLYAYAARHGLM | -2.41
35 | HMEAPWQEIKRQVMDGLDMSREFTDEELRERIALAVRSYSKEKLLSLKVRESYEEQIFNSFR | -1.05
36 | HMEAQFIDINDVRIGTYVYVDLGWIKHPFALNSFKITSRDQIDTLIKLGVKRIRWSPEKSDS | -3.18
37 | HMEARNDWAQQSRADAEFGGEKLDENLAVAKKAVEALASPELKTLLEQSGLGNHPEIIRLFYRAGRSLS | 0.0741
38 | HMEATILTATPEAAGQRLDAFLAETLPELTRSAAQRLIAEGQVAVDGKIPTKSLKLAGGETVSVRLPEPE | 0.734
39 | HMEAVIGGIYRHYKGNNYKLLAVATHSETLEKMAVYQALYGEMGIWVRPLAMFMETIEKDGQSLKRFE | -2.67
40 | HMEDAWMKKELWDAIATLPKKQRLVMTMRLTNNHSYKEIAAILGISENSAKVSYHHAVERLKEKFK | -2.23
41 | HMEDDPIYEQVMIFLLDKQITSAPELERRFKITHQRAIELLAQMEKTGIVSTMGHAGKRDVLT | -1.85
42 | HMEDEFNQIASQKNVPSFLGKGKKEVINIAKKNKIKINLSGNGYVKRQIPAPGEVISHLDEVTIFLEPG | -0.0115
43 | HMEDEVYFVPSPASRFNPWIAALASRRVPYRVEYDGAERRIAVPAGYAEKAGEELAAYERINHAWPR | -0.371
44 | HMEDFDLSDTERKIIAQIGHGYSNKEIAQKLGFSEGTIRNYLSVILDKLDLRDRTQLAIWYLSR | -0.592
45 | HMEDIAAIAQRIQGLRDIVGISVEEMAKALDISEQEYREYEKGETDFSFSFLYTVANVLGINITDLI | -1.29
46 | HMEDIEEVIVEIDTVLRTHFDRGRTEVLFAEIETAGGRPFMTYLALLFMAHRGSVRLQQDDLFGDLWVKDP | 0.198
47 | HMEDISLYKILRAHSIDNLKLSQWIIDSLKTKFSTIGELQDAKIDDIRMYRIQDVRIEKIKNAVTEYMA | -1.08
48 | HMEDISQHAVKKLVQEMVMAEDPRDPLSDQQIAENLSRLGLKVARRTVAKYRAMLGIQPSNRRRK | -1.21
49 | HMEDIVDLVVEPEAAGRRLDAWLASRIERLSRSRIKALIESGHVAIGGATIVEAKKPVNSGDVVQLSVPEG | -0.263
50 | HMEDKQRRMGELVALLNRAAYAYYTKDEPIMADVQYDRLYDELLSLEKETGVQMADSPTHRV | 0.0301
51 | HMEDLMEERKEHLLSVMKDPAYVPMKQKELAMLLNVPKGLREELNQVLDALVAEGSVVMSKRGKYTIPQ | -0.0948
52 | HMEDNLVTYPNPTSDYIYVSKKVDLTVVNMLGDILIQKQNINVLDVTELTPGMYTIVIRYNNVTTNKRIIK | -0.017

Row | Sequence | soluble fraction (log2)
53 | HMEDPFATLGVHREASLDEIKRAYRRLAMFWHPDRNPEAVAGTEFKRVHAAYELLLDPQRLAEWQQAQAT | -0.19
54 | HMEDPLAAQWKQGRKLFHDDYGYGIISKAFTAGDELVIMVQFENGGEKRFLPKYQAHNLLLVEQ | -1.33
55 | HMEDQVITQFNMRLIRAVMPQGAPMIVVYEDPKDYPGLFVARLFDGRKSTHLIALADTLEDI | -0.31
56 | HMEDVDTAALEKVIATAKGLNKNDYTATTWTTMQAALTNAEKALEAKKSQTSVDEAAKTLQAAIDGLKKAS | 0.336
57 | HMEDVPYMIKLPSHHYLTKMVDGSTGWSLVQNSNTVVGSSKEELLKQYPEYEDFIVQEPLNV | -0.0186
58 | HMEDVSTLAVKQRIDDLVKQENPAKPLSDSDIVARLKTDGIYIARRTVAKYRMELNIPSSSARKRAQQFS | -2.31
59 | HMEDWTPERFVGAFVSGGPALRDEILLAATKDLSHAQATRLLKLAEARGLVHRSQPGPSERVRFVVARK | -0.518
60 | HMEDYTPLQELGLKARYIELLEKGGIFSVEDLVQKSVDDLKDIDGIGEKTAKEIWEIVDSMVDF | 0.0226
61 | HMEDYYKEDYYTEVLKIPKEYIKGFQYYLIEDAEFVNALNAKNKTMTSFLAKKLASDYIEIIHQEQ | -2.2
62 | HMEEDDGVDFHERLTELNDEQVYYLINTEPAKVIALALDQLGQKRKINIMNRFNPDMKHSIIMELGKL | -0.543
63 | HMEEDGAPLESREVLLDQAISQGKGTQWTIATETKLEDHIVSGAYSTDGKVTLAVFSPLGDGKYEFSSSVN | 0.181
64 | HMEEDPIIIAQRFLNIFRQLHIFSEEKKESFNKMLLEQPAEIRGALRSLPGGGLLQDYIDDLESKA | -0.698
65 | HMEEEEITIHIIGEVKYPGIVILKTGQRIIDAIDAAGGETEEADLNKINLAQLLSDGDKIYVPSINDN | 0.158
66 | HMEEFAGYINGQPYYGPTHQHRGVKMVGAEHTQRPHPLVWDSVAKSLDNYDNRFQWVNGNLLQVV | -0.0201
67 | HMEEFGRRLKERMIDKNMTEAELAQKTELWSSILTSYLKGERFPGYYTLLRIAEALDVSIDFLLGLRDEPE | -2.72
68 | HMEEILLSVKADGTYWVDQKEVTLDEVGALLDKEPDRLLNIFMDEKVPVRHFINVVDIAKVKREGRFII | -0.27
69 | HMEEIQLILAKNLKSIREKEKLSLEKVSQLTGVSKTMIGQIERGDSSPTLTTIWKIANGLKVSFTSLINNP | -3.06
70 | HMEEKKYEVGDVVSFNYLYKNSFAEGKVSSLIHSGTITRIIDGRPAPYLINRGTGWLSNDLILT | -1.21
71 | HMEEKNNIIVSYIEDKISELEKASMYVPNENKEKLIMAFKNRNEDIDVIKTRIDTIFNNSVAAYKENME | 0.557
72 | HMEEKTMNLPPSAKLVYKILSYEGNLTQKEIINMTYLPERTVRHALELLLGKRLITRQAYLNDARQSVYG | -1.72
73 | HMEEKVEVPNLSGKTYQQAKALLESYGLVAAKGGEEESEEPVGKVSRWSSAGKSVKKGTTITVWISGGI | -0.298
74 | HMEEKWKENYEKIKLFISINNRYPSVYSEDKEEGLIGSFMSNQKRRKNKLSKEKMALFEALPNWIWE | -2.53
75 | HMEELNFYPNPAYKYINLDYVGLKEIYTVLGKKLLETYDTRINISNLNSGIYLIKFKNQALRFVK | 0.0302
76 | HMEELVGFEEKVRSILTSPLSAKEIKEKTHIEIDTRKLSKMLSELSFIKTEKKNGKKIFRLVS | -0.243
77 | HMEEMADILKTRIDTLDLSTRTLNALTGANIRTVGGIARKKKEDLLELAGMGEKGIQEIKKVLGGFGITL | -0.157
